Here are results for 20 molecules from patent publication US20120164142A1.

Common to all, as to test: cell-based or functional assay
Test [1] concerns the target purified neutral endopeptidase (NEP) (UniProt P08473).
Test [2] has as its target human natriuretic peptide receptor B (NPR-B) (human) (UniProt P20594).
Test [3] concerns the target human natriuretic peptide receptor A (NPR-A) (human) (UniProt P16066).

Ends that are not written are not given here.

Chain of human natriuretic peptide receptor B (NPR-B) (human) (P20594 23-1047): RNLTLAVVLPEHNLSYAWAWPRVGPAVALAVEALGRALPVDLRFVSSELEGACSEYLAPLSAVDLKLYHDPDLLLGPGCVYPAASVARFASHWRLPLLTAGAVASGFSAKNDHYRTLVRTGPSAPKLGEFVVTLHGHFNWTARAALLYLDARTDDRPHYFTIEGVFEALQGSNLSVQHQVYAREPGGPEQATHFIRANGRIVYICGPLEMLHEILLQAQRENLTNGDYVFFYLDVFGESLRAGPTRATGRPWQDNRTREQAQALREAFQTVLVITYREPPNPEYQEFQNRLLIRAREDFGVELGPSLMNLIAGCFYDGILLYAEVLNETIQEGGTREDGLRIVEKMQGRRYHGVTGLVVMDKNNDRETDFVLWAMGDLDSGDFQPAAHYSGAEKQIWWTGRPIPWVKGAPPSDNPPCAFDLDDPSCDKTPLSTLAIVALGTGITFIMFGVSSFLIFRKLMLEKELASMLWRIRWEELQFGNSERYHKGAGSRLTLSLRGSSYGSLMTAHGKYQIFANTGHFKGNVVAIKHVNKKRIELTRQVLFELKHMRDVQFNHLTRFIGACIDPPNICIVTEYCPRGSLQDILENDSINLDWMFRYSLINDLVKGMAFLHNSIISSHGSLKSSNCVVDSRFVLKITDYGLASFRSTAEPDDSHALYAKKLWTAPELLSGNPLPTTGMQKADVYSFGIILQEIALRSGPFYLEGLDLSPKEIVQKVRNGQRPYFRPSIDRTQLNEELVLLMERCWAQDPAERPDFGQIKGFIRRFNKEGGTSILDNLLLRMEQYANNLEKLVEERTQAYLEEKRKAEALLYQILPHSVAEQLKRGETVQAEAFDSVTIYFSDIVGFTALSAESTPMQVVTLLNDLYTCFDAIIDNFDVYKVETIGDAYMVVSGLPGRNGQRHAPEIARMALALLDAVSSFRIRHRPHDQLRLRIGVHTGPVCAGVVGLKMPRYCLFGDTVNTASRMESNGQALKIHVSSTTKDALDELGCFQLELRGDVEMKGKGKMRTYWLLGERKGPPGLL
Chain of human natriuretic peptide receptor A (NPR-A) (human) (P16066 33-1061): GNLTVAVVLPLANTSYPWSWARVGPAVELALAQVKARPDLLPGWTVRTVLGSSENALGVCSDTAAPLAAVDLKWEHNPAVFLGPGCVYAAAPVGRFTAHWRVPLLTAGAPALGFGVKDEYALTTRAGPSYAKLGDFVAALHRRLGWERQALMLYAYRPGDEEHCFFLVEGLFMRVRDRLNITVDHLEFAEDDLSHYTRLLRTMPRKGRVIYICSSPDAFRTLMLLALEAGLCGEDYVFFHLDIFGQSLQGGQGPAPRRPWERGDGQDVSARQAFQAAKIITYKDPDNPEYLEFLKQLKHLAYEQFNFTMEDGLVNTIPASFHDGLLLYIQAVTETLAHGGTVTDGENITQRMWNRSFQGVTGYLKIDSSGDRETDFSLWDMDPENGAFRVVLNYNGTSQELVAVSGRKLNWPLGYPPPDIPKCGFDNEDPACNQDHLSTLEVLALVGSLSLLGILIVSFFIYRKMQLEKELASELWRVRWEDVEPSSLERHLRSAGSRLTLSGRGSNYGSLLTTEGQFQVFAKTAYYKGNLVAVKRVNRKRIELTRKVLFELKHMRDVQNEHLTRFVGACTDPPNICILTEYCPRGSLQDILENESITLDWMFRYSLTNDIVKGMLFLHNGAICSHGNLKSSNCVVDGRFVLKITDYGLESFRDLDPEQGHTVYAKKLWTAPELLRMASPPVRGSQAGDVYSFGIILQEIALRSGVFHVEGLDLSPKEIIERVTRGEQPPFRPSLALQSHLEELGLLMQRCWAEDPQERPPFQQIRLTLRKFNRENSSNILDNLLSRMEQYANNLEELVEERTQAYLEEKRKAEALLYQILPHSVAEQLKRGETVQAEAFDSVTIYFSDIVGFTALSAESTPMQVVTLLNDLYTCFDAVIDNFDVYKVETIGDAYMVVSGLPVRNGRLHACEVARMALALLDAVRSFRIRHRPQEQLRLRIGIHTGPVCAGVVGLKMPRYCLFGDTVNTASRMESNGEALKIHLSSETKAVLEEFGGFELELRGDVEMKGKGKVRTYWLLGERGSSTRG
Chain of purified neutral endopeptidase (NEP) (P08473 52-750 limits assumed): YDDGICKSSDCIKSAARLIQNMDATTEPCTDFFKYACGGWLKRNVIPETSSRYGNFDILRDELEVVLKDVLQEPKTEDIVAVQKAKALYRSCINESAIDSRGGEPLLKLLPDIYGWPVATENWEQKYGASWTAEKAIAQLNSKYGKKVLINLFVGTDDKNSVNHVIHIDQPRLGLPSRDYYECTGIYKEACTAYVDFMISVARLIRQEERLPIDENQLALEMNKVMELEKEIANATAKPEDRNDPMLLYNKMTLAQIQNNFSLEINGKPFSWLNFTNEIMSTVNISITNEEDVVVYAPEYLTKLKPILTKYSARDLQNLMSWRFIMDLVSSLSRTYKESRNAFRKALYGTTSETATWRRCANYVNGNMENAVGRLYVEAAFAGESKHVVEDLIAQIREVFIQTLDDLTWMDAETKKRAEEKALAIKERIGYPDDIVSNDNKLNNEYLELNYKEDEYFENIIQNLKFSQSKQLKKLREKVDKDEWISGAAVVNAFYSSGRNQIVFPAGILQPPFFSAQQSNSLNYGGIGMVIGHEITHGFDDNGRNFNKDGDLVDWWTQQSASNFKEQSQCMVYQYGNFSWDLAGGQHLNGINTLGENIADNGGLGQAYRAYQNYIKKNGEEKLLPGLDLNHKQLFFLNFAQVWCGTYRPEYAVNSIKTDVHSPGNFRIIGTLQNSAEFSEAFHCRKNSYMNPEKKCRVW

The molecule DDDDDDGGGGSGGGGSGGGGGLSKGCFGLKLDRIGSMSGLGC [D6-14AAlinker-CNP [C3]] gave a % of control after 240 min (intact peptide by RP-HPLC after incubation with NEP) in test [1] of 101%.
For EEEEEESGGGGSGGGGSGGGGGLSKGCFGLKLDRIGSMSGLGC [C1(E6) [BC1]], in test [2], the % Efficacy worked out at 97%; the EC50 (nM), NPR-B whole cell cGMP assay was 1740 nM; the EC50 Ratio versus CNP22 worked out at 118; the Rescue Ratio Average amounted to 122. In test [1], the % of control after 240 min (intact peptide by RP-HPLC after incubation with NEP) is 99%.
Take SLRRSSCFGGRMDRIGAQSGLGCNSFRY [atrial natriuretic peptide (ANP)]: the EC50 on NPR-A (nM), whole cell cGMP assay in test [3] amounted to 1.4 nM.
Take GLSKGCFGLKLDRIGSMSGLGCPSSAAPRPNAPSTSA (ends and bridges not checked; cysteine pairing not given here) [CDNP-S3A4A5]: in test [2], the % loss in efficacy versus CDNP (NPR-B selective efficacy gain) is 69%, the Approximate fold gain in selectivity versus CDNP (NPR-B over NPR-A) was determined as 14.9 fold and the Approximate fold selectivity NPR-B versus NPR-A turned out to be 43.5 fold.
For the molecule GLSKGCFGLKLDRIGSMSGLGCPSLADPRPNAPSTSA (ends and bridges not checked; cysteine pairing not given here) [CDNP-A4], in test [2], the % efficacy versus CDNP on NPR-B, membrane cGMP assay worked out at 92%; the % loss in efficacy versus CDNP (NPR-B selective efficacy gain) is 2%; the Approximate fold gain in selectivity versus CDNP (NPR-B over NPR-A) is 17.8 fold; the Approximate fold selectivity NPR-B versus NPR-A is 52 fold. For the same molecule, in test [2], the EC50 ratio versus CDNP on NPR-B, membrane cGMP assay was found to be 2.31. In test [3], the % efficacy versus CDNP on NPR-A, membrane cGMP assay worked out at 90% and the EC50 ratio versus CDNP on NPR-A, membrane cGMP assay came to 41.1.
As to GLSKGCFGLKLDRIGSMSGLGCPSSADPRPNAPSTSA (ends and bridges not checked; cysteine pairing not given here) [CDNP-S3A4], in test [2], the % loss in efficacy versus CDNP (NPR-B selective efficacy gain) amounted to 27%, the Approximate fold gain in selectivity versus CDNP (NPR-B over NPR-A) was 28.5 fold and the Approximate fold selectivity NPR-B versus NPR-A was 83.2 fold.
For GLSKGCFGLKLDRIGSMSGLGCPSSRAPRPNAPSTSA (ends and bridges not checked; cysteine pairing not given here) [CDNP-S3A5], in test [2], the % efficacy versus CDNP on NPR-B, membrane cGMP assay is 118%; the % loss in efficacy versus CDNP (NPR-B selective efficacy gain) turned out to be 82%; the Approximate fold gain in selectivity versus CDNP (NPR-B over NPR-A) was 1.23 fold; the Approximate fold selectivity NPR-B versus NPR-A was 3.59 fold. In addition, the EC50 ratio versus CDNP on NPR-B, membrane cGMP assay in test [2] stood at 1.08. In addition, in test [3], the % efficacy versus CDNP on NPR-A, membrane cGMP assay was 36% and the EC50 ratio versus CDNP on NPR-A, membrane cGMP assay came out at 1.33.
On to GLSKGCFGLKLDRIGSMSGLGCPSLRAPRPNAPSTSA (ends and bridges not checked; cysteine pairing not given here) [CDNP-A5], for which, in test [2], the % efficacy versus CDNP on NPR-B, membrane cGMP assay came out at 87%; the % loss in efficacy versus CDNP (NPR-B selective efficacy gain) was -27%; the Approximate fold gain in selectivity versus CDNP (NPR-B over NPR-A) was found to be 5.54 fold; the Approximate fold selectivity NPR-B versus NPR-A was 16.2 fold. Moreover, in test [2], the EC50 ratio versus CDNP on NPR-B, membrane cGMP assay was determined as 0.24. Further, in test [3], the % efficacy versus CDNP on NPR-A, membrane cGMP assay came out at 114% and the EC50 ratio versus CDNP on NPR-A, membrane cGMP assay was determined as 1.33.
Regarding GLSKGCFGLKLDRIGSMSGLGCPSLAAPRPNAPSTSA (ends and bridges not checked; cysteine pairing not given here) [CDNP-A4A5], in test [2], the % efficacy versus CDNP on NPR-B, membrane cGMP assay is 85%; the % loss in efficacy versus CDNP (NPR-B selective efficacy gain) is 36%; the Approximate fold gain in selectivity versus CDNP (NPR-B over NPR-A) was determined as 0.98 fold; the Approximate fold selectivity NPR-B versus NPR-A turned out to be 2.86 fold. The EC50 ratio versus CDNP on NPR-B, membrane cGMP assay in test [2] came out at 0.49. In test [3], the % efficacy versus CDNP on NPR-A, membrane cGMP assay was 49% and the EC50 ratio versus CDNP on NPR-A, membrane cGMP assay was found to be 0.48.
Turning to EEEEEESGGGGSGGGKGANKKGLSKGCFGLKLDRIGSMSGLGC [C4(E6) [BC4]], in test [2], the % Efficacy came out at 136%; the EC50 (nM), NPR-B whole cell cGMP assay was 302 nM; the EC50 Ratio versus CNP22 was 20.5; the Rescue Ratio Average came out at 18. In test [1], this molecule yielded a % of control after 240 min (intact peptide by RP-HPLC after incubation with NEP) of 94%.
For EEEEEESGGGGSGGGQGANKQGLSKGCFGLKLDRIGSMSGLGC [C11(E6) [BC11]], in test [2], the % Efficacy was determined as 95%; the EC50 (nM), NPR-B whole cell cGMP assay turned out to be 888 nM; the EC50 Ratio versus CNP22 is 60.4; the Rescue Ratio Average turned out to be 120. Also, in test [1], the % of control after 240 min (intact peptide by RP-HPLC after incubation with NEP) came to 102%.
EEEEEESGGGGSGGGQGANQKGLSKGCFGLKLDRIGSMSGLGC [C10(E6) [BC10]]: in test [2], the % Efficacy is 156%; the EC50 (nM), NPR-B whole cell cGMP assay is 2470 nM; the EC50 Ratio versus CNP22 amounted to 168; the Rescue Ratio Average was found to be 90. The same molecule gave a % of control after 240 min (intact peptide by RP-HPLC after incubation with NEP) in test [1] of 102%.
For EEEEEESGGGGSGGGQGANQQGLSKGCFGLKLDRIGSMSGLGC [C5(E6) [BC5]], in that order: 96%, 2360 nM, 161, 138 and 100%.
The like results for EEEEEESGGGGSGGGKGANKQGLSKGCFGLKLDRIGSMSGLGC [C6(E6) [BC6]] were, in that order, 88%, 672 nM, 45.7, 63 and 98%.
For the molecule EEEEEESGGGGSGGGKGANQQGLSKGCFGLKLDRIGSMSGLGC [C9(E6) [BC9]], in test [2], the % Efficacy was 95%; the EC50 (nM), NPR-B whole cell cGMP assay was 1170 nM; the EC50 Ratio versus CNP22 came out at 79.3; the Rescue Ratio Average came out at 87. For the same molecule, in test [1], the % of control after 240 min (intact peptide by RP-HPLC after incubation with NEP) worked out at 98%.
As for EEEEEESGGGGSGGGKGANQKGLSKGCFGLKLDRIGSMSGLGC [C7(E6) [BC7]], in test [2], the % Efficacy came out at 95%; the EC50 (nM), NPR-B whole cell cGMP assay turned out to be 1010 nM; the EC50 Ratio versus CNP22 was 68.6; the Rescue Ratio Average was 80. In addition, the % of control after 240 min (intact peptide by RP-HPLC after incubation with NEP) in test [1] was 98%.
For EEEEEESGGGGSGGGQGANKKGLSKGCFGLKLDRIGSMSGLGC [C8(E6) [BC8]], in that order: 97%, 719 nM, 48.9, 52 and 103%.
As to GLSKGCFGLKLDRIGSMSGLGCGGGGSGGGGSGGGGDDDDDD [CNP-14AAlinker-D6 [C4]], in test [2], the % Efficacy worked out at 156%; the EC50 (nM), NPR-B whole cell cGMP assay was determined as 2140 nM; the EC50 Ratio versus CNP22 stood at 146; the Rescue Ratio Average was found to be 545. Moreover, the % of control after 240 min (intact peptide by RP-HPLC after incubation with NEP) in test [1] was 75%.
The like results for EEEEEEHKLRGQEHPNARKYKGANKKGLSKGCFGLKLDRIGSMSGLGC [KB1(E6)] were, in that order, 109%, 84.5 nM, 5.75, 5.6 and 107%.
For the molecule EEEEEEHGPQGQEHPNARKYKGANKKGLSKGCFGLKLDRIGSMSGLGC [KA1(E6)], in test [2], the % Efficacy is 108%; the EC50 (nM), NPR-B whole cell cGMP assay came to 144 nM; the EC50 Ratio versus CNP22 amounted to 9.79; the Rescue Ratio Average was determined as 8.2. In addition, in test [1], the % of control after 240 min (intact peptide by RP-HPLC after incubation with NEP) came to 108%.
